Laboratory results reported in paper PMC9371684.

How the values were obtained:
[1] = target: v5-tagged full-length GIGYF2 (1–1,320) (human); assay: proximity ligation
[2] = target: v5-tagged full-length GIGYF2 (1–1,320) (human); assay: proximity ligation; cells cotransfected with v5-GIGYF2, HA-4EHP and FLAG-empty vector; fixed 24 h after transfection; PLA with v5 and HA antibodies

Sequence of v5-tagged full-length GIGYF2 (1–1,320) (human) (Q6Y7W6 2-1299): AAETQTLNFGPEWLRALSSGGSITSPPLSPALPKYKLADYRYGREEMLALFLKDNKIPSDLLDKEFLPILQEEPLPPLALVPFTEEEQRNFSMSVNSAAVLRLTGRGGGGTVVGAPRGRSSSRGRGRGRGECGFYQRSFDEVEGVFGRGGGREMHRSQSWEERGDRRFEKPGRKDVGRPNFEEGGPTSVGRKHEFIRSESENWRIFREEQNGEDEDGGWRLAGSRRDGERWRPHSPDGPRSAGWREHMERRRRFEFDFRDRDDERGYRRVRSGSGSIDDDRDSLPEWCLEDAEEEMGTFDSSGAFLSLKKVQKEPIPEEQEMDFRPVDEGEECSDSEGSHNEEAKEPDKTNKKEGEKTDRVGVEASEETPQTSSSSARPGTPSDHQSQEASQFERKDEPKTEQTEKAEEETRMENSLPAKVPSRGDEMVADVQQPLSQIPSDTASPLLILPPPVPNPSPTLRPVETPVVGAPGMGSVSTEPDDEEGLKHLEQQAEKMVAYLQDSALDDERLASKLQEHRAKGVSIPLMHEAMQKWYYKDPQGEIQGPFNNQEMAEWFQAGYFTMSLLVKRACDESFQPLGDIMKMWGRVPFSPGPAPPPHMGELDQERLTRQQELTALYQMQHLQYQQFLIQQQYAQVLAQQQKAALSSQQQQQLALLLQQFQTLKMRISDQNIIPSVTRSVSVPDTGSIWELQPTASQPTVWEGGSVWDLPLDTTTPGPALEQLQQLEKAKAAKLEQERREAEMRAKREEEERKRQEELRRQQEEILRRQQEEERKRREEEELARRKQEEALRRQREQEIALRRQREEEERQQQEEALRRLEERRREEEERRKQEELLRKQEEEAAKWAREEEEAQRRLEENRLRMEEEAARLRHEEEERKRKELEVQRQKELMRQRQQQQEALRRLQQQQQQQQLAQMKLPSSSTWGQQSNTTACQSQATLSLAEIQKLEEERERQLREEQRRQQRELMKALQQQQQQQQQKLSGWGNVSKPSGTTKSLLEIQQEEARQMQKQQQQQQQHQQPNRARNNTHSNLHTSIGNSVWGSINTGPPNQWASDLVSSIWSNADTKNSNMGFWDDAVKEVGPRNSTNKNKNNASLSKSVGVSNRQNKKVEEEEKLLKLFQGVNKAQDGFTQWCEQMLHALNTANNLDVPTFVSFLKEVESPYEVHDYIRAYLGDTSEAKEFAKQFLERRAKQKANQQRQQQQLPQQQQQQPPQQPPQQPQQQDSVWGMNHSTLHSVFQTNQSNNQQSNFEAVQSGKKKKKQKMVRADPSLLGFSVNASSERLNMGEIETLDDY

Substance: HA-tagged 4EHP (from UniProt O60573 1-245)
- PLA punctate per cell (punctate per cell) [1]: 61
- PLA punctate per cell (punctate per cell) [2]: 19.8
